In this test the target is T1, His-tagged A. vinelandii NifEN heterologously expressed in E. coli, O- and L-cluster containing (AvNifEN^Ec-L) (A. vinelandii) (UniProt P08293).
T1 sequence 1: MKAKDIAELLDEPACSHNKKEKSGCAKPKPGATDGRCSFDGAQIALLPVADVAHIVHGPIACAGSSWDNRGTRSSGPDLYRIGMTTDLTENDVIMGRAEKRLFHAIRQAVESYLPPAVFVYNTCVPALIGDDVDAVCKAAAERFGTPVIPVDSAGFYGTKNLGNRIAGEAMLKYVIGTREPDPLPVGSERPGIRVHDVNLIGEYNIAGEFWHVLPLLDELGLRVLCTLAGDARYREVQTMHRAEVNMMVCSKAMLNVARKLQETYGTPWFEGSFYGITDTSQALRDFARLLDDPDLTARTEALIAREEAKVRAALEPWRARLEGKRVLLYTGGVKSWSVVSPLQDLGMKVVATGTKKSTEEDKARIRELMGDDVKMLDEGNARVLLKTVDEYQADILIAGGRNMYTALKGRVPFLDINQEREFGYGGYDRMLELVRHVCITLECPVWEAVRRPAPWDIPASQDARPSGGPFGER
T1 sequence 2: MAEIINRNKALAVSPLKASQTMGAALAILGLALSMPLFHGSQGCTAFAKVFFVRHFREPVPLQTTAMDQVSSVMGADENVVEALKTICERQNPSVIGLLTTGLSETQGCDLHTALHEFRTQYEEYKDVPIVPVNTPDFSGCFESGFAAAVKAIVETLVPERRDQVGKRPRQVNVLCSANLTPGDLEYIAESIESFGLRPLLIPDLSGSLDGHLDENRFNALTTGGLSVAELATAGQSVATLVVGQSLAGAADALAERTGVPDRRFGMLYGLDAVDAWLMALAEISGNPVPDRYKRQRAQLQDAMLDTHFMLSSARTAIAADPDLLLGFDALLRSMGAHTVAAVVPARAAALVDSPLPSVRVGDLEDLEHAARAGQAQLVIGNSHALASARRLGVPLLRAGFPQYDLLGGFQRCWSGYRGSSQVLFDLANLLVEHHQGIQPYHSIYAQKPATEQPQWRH

B1: M. acetivorans NifB (MaNifB), radical SAM enzyme, L-cluster bound (enzyme)
chain: MPEENQPIKEKNNGPILGEELLRKISEHPCYDKNAQHKYGRIHLAVAPACNIQCNFCVREFDCVNESRPGVTSKVLTPEEALEKTKQILAEYPFIKVVAIAGPGDPLANDETFETFELIRNEFPEITLCMSTNGLMLPEKLPEILRTGVSTLTVTVNAIDPEIQAKIVDHIFYHGKVYKGVEAAKIQIKNQLDGIKAAIDAGIVVKVNTVLIPGINDKHIIEIAKKLNELGVYIMNVMPLINQGAFADLEPPTPEERKAVQEACEPYVMQMRHCRQCRADAYGLLAQDMSQMSEERRKVIKIQTKEDMEKARAVLEKNGKKEA
Consider B1, for which the L-cluster occupancy of AvNifEN^Ec-L calculated from the Fe content, after in vivo transfer of the L-cluster from NifB to NifEN in E. coli is 42.9% and the L-cluster occupancy of AvNifEN^Ec-L relative to native AvNifEN^L (intensity of the g = 1.94 EPR feature), after in vivo transfer of the L-cluster from NifB to NifEN in E. coli was 36%.

(Values after article PMC12047441.)
